Measurements published in patent US20180243434A1 (INSERM INSTITUT NATIONAL DE LA SANT ET DE LA RECHERCHE M …, published 2018).

T1: endogenous nectin-4 on SUM190 cells (human, UniProt Q96NY8 32-510)
T1 sequence (looked up): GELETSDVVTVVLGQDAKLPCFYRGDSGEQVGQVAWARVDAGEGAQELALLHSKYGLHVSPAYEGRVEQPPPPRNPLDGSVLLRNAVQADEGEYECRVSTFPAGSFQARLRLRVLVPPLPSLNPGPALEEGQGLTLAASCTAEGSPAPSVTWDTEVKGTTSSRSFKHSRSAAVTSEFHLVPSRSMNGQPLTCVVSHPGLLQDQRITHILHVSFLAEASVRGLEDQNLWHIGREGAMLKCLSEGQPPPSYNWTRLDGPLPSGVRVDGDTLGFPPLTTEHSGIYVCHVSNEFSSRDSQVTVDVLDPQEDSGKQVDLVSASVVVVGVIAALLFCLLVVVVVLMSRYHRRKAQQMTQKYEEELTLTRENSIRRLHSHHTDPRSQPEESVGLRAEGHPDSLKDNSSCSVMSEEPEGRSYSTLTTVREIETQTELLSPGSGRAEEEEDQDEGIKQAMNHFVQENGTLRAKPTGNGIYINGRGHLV

T2: N-terminal Flag-tagged nectin4 expressed in MDA-MB-231 cells (human, UniProt Q96NY8 32-510)
T2 sequence (looked up): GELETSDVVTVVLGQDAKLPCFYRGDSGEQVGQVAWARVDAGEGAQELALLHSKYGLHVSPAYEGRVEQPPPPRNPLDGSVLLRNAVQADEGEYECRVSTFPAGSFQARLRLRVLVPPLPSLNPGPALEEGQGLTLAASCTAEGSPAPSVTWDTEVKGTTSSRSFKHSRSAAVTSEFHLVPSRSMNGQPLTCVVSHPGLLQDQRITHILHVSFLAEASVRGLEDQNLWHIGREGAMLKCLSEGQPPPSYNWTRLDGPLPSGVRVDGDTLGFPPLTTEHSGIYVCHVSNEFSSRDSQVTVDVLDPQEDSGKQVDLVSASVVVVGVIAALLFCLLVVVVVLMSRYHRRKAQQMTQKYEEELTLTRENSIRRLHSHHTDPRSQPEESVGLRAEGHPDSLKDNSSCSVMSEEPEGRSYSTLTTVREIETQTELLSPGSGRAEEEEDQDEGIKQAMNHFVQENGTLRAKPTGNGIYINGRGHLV

T3: nectin1V-Fc (comprising only the IgV domain) (UniProt Q15223 31-143, limits assumed)
T3 construct: domain: IgV domain; not shown: Fc part
T3 sequence (looked up): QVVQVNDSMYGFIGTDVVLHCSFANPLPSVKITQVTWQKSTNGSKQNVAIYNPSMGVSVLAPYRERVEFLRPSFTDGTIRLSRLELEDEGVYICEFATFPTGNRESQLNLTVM


Columns and labels:
[1] = target: T1, endogenous nectin-4 on SUM190 cells; test: cell-based or functional assay
[2] = target: T2, N-terminal Flag-tagged nectin4 …; test: cell-based or functional assay
[3] = target: T3, nectin1V-Fc (comprising only the IgV …); test: ELISA, plate coated with 5 ug/ml nectin1V-Fc
Protocol: A: Detection by ELISA. Ninety-six-well trays were coated with 5 ug/ml of nectin4V-Fc or nectin1V-Fc (comprising only the IgV domain) overnight at +4° C. as indicated. N41mab recognizes the nectin4V-Fc (bar 3) not the nectin1V-Fc (bar 1).
A sandwich enzyme-linked immunosorbent assay was used to control specificity of N41mab antibody and to perform competition assays between mabs. Ninety-six-well trays were coated with 5 μg/ml of nectin4V-Fc or nectin1V-Fc (comprising only the IgV domain) overnight at +4° C. After washes and saturation with PBS 1% BSA cells were incubated overnight with 0.625 μg/ml of N41mab. Peroxydase conjugated goat anti mouse antibody was incubated 2 h at 25° C. (Pierce). In the case of competition, binding of peroxidase conjugated N41mab was measured in the presence of vairable concentration of “cold” mab. One hundred ul of peroxidase substrate was added (One Step ABST, Pierce), and OD was read at 405 nm.
A sandwich enzyme-linked immunosorbent assay was used to control the specificity of the N41mab antibody. Ninety-six-well trays were coated with 5 μg/ml of nectin4V-Fc or nectin1V-Fc (comprising only the IgV domain) overnight at +4° C. After washes and saturation with PBS 1% BSA cells were incubated overnight with 0.625 μg/ml of mab1/N41mab. […] One hundred μ1 of peroxidase substrate was added (One Step ABST, Pierce), and OD was read at 405 nm.

Row | Binder | IC50 (cell growth, alamarBlue) [1] | IC50 (cell growth, alamarBlue) [2] | binding result [3]
1 | N41mab-vcMMAE (antibody, V domains shown, monomethyl auristatin-E (MMAE) conjugated through the MC-Val-Cit-PAB linker; drug to antibody ratio 4.73; sites not stated) VH: QVQLKQSGPGLVQPSQSLSITCTVSGFSLTNYGVHWVRQSPGKGLEWLGVIWSGGSTDYNAAFISRLSISKDTSKSQVFFKMNSLQADDTAIYYCARELIHAMDNWGQGTSVTVSS VL: DIQMTQSPASLSVSVGETVTITCRASENIYSNLAWYQQKQGNSPQLLVFAATNLADGVPSRFSGSGSGTQYSLKINSLQSEDFGTYYCQHFWGTPTFGGGTKLEIK | 4 ng/mL | 2 ng/mL | 
2 | N41mab antibody (antibody, V domains shown, Mouse monoclonal antibody from a hybridoma (mice immunized with nectin4 V-Fc); also called mab1; Mab1) VH: QVQLKQSGPGLVQPSQSLSITCTVSGFSLTNYGVHWVRQSPGKGLEWLGVIWSGGSTDYNAAFISRLSISKDTSKSQVFFKMNSLQADDTAIYYCARELIHAMDNWGQGTSVTVSS VL: DIQMTQSPASLSVSVGETVTITCRASENIYSNLAWYQQKQGNSPQLLVFAATNLADGVPSRFSGSGSGTQYSLKINSLQSEDFGTYYCQHFWGTPTFGGGTKLEIK |  |  | no binding (tested: 0.625 µg/ml)
